Reference: paper PMC8933513 (2022)
Changes are numbered by the printed parent chain.

Columns and labels:
Experiment in all cases: SPR
[1] = target: hAPN ectodomain E745A mutant (human, UniProt P15144 62-963, E745A)
[2] = target: T1, human aminopeptidase N (hAPN) ectodomain, residues 62-963, wild type (human, UniProt P15144 62-963)
T1 chain: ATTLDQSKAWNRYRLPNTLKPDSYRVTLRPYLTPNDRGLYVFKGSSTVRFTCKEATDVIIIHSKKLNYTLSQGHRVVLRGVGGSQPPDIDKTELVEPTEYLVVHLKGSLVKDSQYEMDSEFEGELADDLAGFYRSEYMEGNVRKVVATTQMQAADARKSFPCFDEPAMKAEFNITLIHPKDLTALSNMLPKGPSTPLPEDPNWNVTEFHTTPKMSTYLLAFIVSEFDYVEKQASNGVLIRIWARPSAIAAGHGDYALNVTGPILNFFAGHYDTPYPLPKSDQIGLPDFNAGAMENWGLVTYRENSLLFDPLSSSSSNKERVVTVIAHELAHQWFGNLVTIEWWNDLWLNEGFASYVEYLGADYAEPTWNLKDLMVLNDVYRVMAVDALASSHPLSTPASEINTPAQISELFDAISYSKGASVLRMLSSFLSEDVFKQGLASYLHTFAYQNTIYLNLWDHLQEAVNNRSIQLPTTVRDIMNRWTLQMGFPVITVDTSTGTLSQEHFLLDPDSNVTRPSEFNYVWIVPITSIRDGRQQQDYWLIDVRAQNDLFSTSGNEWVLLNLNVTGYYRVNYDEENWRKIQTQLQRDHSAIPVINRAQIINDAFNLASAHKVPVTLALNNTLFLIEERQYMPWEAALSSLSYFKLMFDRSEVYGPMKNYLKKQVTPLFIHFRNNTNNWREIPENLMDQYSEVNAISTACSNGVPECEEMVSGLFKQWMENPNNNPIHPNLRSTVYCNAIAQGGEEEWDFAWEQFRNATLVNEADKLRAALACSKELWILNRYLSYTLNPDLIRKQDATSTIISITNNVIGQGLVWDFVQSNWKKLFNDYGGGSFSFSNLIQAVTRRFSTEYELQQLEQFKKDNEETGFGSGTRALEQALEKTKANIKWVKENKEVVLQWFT

[3] = target: hAPN ectodomain K379A mutant (human, UniProt P15144 62-963, K379A)
[4] = target: hAPN ectodomain E426A mutant (human, UniProt P15144 62-963, E426A)
[5] = target: T2, pAPN ectodomain W424A mutant (pig, UniProt P15145 58-961, W424A)
T2 sequence: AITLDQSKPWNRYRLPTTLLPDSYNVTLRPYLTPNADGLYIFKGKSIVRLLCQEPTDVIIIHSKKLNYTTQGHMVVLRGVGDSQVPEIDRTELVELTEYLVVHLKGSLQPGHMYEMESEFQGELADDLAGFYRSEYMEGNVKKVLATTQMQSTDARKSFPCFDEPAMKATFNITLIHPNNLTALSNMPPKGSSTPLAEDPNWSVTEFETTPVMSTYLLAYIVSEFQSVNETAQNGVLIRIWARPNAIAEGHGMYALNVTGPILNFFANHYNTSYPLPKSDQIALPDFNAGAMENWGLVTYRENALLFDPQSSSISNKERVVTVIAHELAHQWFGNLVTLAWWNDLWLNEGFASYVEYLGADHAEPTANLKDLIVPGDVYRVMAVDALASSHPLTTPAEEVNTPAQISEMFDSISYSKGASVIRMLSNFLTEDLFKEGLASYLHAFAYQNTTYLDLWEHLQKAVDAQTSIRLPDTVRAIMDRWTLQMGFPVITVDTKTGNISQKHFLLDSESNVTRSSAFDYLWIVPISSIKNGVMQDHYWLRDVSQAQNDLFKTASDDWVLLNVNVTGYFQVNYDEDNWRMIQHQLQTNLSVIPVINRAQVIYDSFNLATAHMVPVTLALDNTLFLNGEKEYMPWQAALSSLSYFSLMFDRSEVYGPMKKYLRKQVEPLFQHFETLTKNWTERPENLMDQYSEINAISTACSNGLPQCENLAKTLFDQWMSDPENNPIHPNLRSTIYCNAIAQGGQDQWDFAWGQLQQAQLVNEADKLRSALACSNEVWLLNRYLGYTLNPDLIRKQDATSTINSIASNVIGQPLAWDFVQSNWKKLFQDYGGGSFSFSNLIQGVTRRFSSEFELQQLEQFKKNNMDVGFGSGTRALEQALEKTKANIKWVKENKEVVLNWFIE

[6] = target: T3, pAPN ectodomain E421A mutant (pig, UniProt P15145 58-961, E421A)
T3 sequence: T2 sequence with E364A, A367W

Chain of hAPN ectodomain K379A mutant (P15144 62-963 K379A): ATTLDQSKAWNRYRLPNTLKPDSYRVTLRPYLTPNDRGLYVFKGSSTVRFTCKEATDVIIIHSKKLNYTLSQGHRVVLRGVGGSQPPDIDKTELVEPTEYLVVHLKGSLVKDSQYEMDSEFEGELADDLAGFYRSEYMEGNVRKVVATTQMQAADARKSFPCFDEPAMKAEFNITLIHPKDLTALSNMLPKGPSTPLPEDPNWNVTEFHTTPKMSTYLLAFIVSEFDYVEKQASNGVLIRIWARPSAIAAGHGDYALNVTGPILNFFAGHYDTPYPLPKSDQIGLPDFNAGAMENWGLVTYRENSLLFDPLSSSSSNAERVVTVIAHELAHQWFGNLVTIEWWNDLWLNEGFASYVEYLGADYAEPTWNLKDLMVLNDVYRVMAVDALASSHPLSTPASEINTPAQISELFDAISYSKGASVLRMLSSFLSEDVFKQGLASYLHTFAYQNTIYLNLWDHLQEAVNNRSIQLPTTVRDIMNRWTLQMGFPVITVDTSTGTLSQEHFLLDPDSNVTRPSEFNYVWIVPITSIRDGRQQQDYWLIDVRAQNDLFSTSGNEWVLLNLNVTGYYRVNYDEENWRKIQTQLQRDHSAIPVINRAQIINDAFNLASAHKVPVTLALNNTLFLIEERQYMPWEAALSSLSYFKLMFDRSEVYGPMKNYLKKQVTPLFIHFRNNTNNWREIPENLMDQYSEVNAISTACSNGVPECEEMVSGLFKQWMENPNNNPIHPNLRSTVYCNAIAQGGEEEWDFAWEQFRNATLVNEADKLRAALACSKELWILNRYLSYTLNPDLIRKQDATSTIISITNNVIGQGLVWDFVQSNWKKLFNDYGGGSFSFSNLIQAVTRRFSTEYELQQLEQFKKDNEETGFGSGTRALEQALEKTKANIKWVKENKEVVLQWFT
Chain of hAPN ectodomain E745A mutant (P15144 62-963 E745A): as the sequence (P15144 62-963 K379A) above, with A318K, E684A counted along it

B1: PDCoV spike (S) protein receptor binding domain (RBD), residues 300-419, wild type (domain or fragment)
chain: PKLPELEVVQLNISAHMDFGEARLDSVTINGNTSYCVTKPYFRLETNFMCTGCTMNLRTDTCSFDLSAVNNGMSFSQFCLSTESGACEMKIIVTYVWNYLLRQRLYVTAVEGQTHTGTTS
B1 was tested. Which Kd [1] did it give?
The Kd was 3.06 µM.

And the Kd [2]?
Its Kd is 3.71 µM.

What about the Kd [3] of the same binder?
Its Kd is 444 µM.

What about the Kd [4] of the same binder?
The Kd was 334 µM.

What about the Kd [5] of the same binder?
The Kd was 116 µM.

What about the Kd [6] of the same binder?
The Kd was 125 µM.
